Experimental data from patent US20200031885A1.
Each block holds one substance with its values, some of them ahead of it.

Legend:
Assay in all cases: affinity capture from mixture of 54 pTyr peptides, PRM-MS
[1] = molecular target: FGFR1 (pTyr653/654) peptide DIHHIDpYpYK
[2] = molecular target: RON (pTyr1238/1239) peptide EpYpYSVQQHR
[3] = molecular target: NTRK1 (pTyr680/681) peptide DIYSTDpYpYR
[4] = molecular target: FGFR4 (pTyr642/643) peptide GVHHIDpYpYK
[5] = molecular target: JAK1 (pTyr1034/1035) peptide EpYpYTVK
[6] = molecular target: NTRK2 (pTyr706/707) peptide DVYSTDpYpYR
[7] = molecular target: MET (pTyr1234/1235) peptide EpYpYSVHNK
[8] = molecular target: JAK3 (pTyr980/981) peptide DpYpYVVR
[9] = molecular target: DDR1 (pTyr796/797) peptide NLYAGDpYpYR
[10] = molecular target: EPHA6 (pTyr830) peptide …pYTTTGGK
[11] = molecular target: MUSK (pTyr755/756) peptide NIYSADpYpYK
[12] = molecular target: ROR1 (pTyr645/646) peptide EIYSADpYpYR
[13] = molecular target: ROR2 (pTyr645/646) peptide EVYAADpYpYK
[14] = molecular target: LMTK3 (pTyr296/297) peptide EDpYpYLTPER
[15] = molecular target: TYK2 (pTyr1054/1055) peptide AVPEGHEpYpYR
[16] = molecular target: FGFR2 (pTyr656/657) peptide DINNIDpYpYK
[17] = molecular target: FGFR3 (pTyr647/648) peptide DVHNLDpYpYK
[18] = molecular target: ERBB3 (pTyr866) peptide QLLpYSEAK
[19] = molecular target: EPHB2 (pTyr780) peptide …pYTSALGGK
[20] = molecular target: DDR2 (pTyr740/741) peptide NLYSGDpYpYR
[21] = molecular target: TXK (pTyr420) peptide YVLDDEpYVSSFGAK
[22] = molecular target: BTK (pTyr551) peptide YVLDDEpYTSSVGSK
[23] = molecular target: EPHA1 (pTyr781) peptide LLDDFDGTpYETQGGK
[24] = molecular target: INSRR (pTyr1145/1146) peptide DVYETDpYpYR
[25] = molecular target: TEC (pTyr519) peptide YVLDDQpYTSSSGAK
[26] = molecular target: LMTK2 (pTyr295) peptide EDpYIETDDK
[27] = molecular target: JAK2 (pTyr221) peptide IQDpYHILTR
[28] = molecular target: ERBB2 (pTyr877) peptide LLDIDETEpYHADGGK
[29] = molecular target: EPHA8 (pTyr793) peptide …pYTTTGGK
[30] = molecular target: EPHA2 (pTyr772) peptide …pYTTSGGK
[31] = molecular target: EPHB3 (pTyr792) peptide …pYTSSLGGK
[32] = molecular target: PTK7 (pTyr960/961) peptide DVYNSEpYpYHFR
[33] = molecular target: SRMS (pTyr380) peptide DDIpYSPSSSSK
[34] = molecular target: BLK (pTyr389) peptide IIDSEpYTAQEGAK
[35] = molecular target: PGFRB (pTyr857) peptide DSNpYISK
[36] = molecular target: FES (pTyr713) peptide EEADGVpYAASGGLR
[37] = molecular target: RET (pTyr905) peptide DVYEEDSpYVK
[38] = molecular target: EPHA3 (pTyr779) peptide …pYTTR
[39] = molecular target: SRC (pTyr419) peptide LIEDNEpYTAR
[40] = molecular target: FRK (pTyr387) peptide VDNEDIpYESR
[41] = molecular target: HCK (pTyr411) peptide VIEDNEpYTAR
[42] = molecular target: GSK3 (pTyr279/216) peptide GEPNVSpYICSR
[43] = molecular target: BMX (pTyr566) peptide YVLDDQpYVSSVGTK
[44] = molecular target: VGFR1 (pTyr1053) peptide NPDpYVR
[45] = molecular target: KIT (pTyr823) peptide NDSNpYVVK
[46] = molecular target: ITK (pTyr512) peptide FVLDDQpYTSSTGTK
[47] = molecular target: VGFR2 (pTyr1059) peptide DPDpYVR
[48] = molecular target: TIE1 (pTyr1007) peptide GEEVpYVK
[49] = molecular target: EPHB4 (pTyr774) peptide …pYTSSLGGK
[50] = molecular target: FER (pTyr714) peptide QEDGGVpYSSSGLK
[51] = molecular target: EPHB1 (pTyr778) peptide …pYTSSLGGK
[52] = molecular target: TIE2 (pTyr992) peptide GQEVpYVK
[53] = molecular target: MERTK (pTyr753/754) peptide IYSGDpYpYR

PRM signal peak area [1]: 28500
PRM signal peak area [2]: 5430
PRM signal peak area [3]: 21700
PRM signal peak area [4]: 29800
PRM signal peak area [5]: 58300
PRM signal peak area [6]: 39600
PRM signal peak area [7]: 26800
PRM signal peak area [8]: 23300
PRM signal peak area [9]: 47700
PRM signal peak area [10]: 2740
PRM signal peak area [11]: 47600
PRM signal peak area [12]: 32400
PRM signal peak area [13]: 85900
PRM signal peak area [14]: 29900
PRM signal peak area [15]: 11600
PRM signal peak area [16]: 51600
PRM signal peak area [17]: 104000
PRM signal peak area [18]: 41900
PRM signal peak area [19]: 10800
PRM signal peak area [20]: 15300
PRM signal peak area [21]: 1520
PRM signal peak area [22]: 4210
Substance: wild-type (wt) human Src SH2 domain expressed with His6 and GST tags

PRM signal peak area [1]: 29000
PRM signal peak area [2]: 17400
PRM signal peak area [23]: 12300
PRM signal peak area [3]: 30200
PRM signal peak area [4]: 30000
PRM signal peak area [5]: 46200
PRM signal peak area [24]: 7790
PRM signal peak area [6]: 22800
PRM signal peak area [25]: 4820
PRM signal peak area [7]: 70800
PRM signal peak area [8]: 10500
PRM signal peak area [9]: 43200
PRM signal peak area [26]: 1120
PRM signal peak area [27]: 39200
PRM signal peak area [10]: 51100
PRM signal peak area [12]: 27700
PRM signal peak area [13]: 60500
PRM signal peak area [28]: 4640
PRM signal peak area [29]: 57100
PRM signal peak area [14]: 78600
PRM signal peak area [15]: 9680
PRM signal peak area [16]: 39500
PRM signal peak area [17]: 64600
PRM signal peak area [18]: 152000
PRM signal peak area [30]: 4860
PRM signal peak area [31]: 14700
PRM signal peak area [19]: 98000
PRM signal peak area [20]: 16200
PRM signal peak area [21]: 46100
PRM signal peak area [32]: 4840
PRM signal peak area [22]: 18200
Substance: DM human Src SH2 Superbinder expressed with His6 and GST tags (designed binder)

PRM signal peak area [33]: 479000
PRM signal peak area [1]: 51200
PRM signal peak area [34]: 156000
PRM signal peak area [35]: 398000
PRM signal peak area [36]: 25100
PRM signal peak area [37]: 883000
PRM signal peak area [2]: 44300
PRM signal peak area [23]: 188000
PRM signal peak area [38]: 394000
PRM signal peak area [3]: 103000
PRM signal peak area [39]: 99500
PRM signal peak area [40]: 291000
PRM signal peak area [4]: 36100
PRM signal peak area [5]: 110000
PRM signal peak area [24]: 20800
PRM signal peak area [41]: 384000
PRM signal peak area [6]: 115000
PRM signal peak area [25]: 781000
PRM signal peak area [7]: 111000
PRM signal peak area [8]: 19700
PRM signal peak area [9]: 338000
PRM signal peak area [26]: 20900
PRM signal peak area [42]: 48300
PRM signal peak area [27]: 85500
PRM signal peak area [10]: 288000
PRM signal peak area [11]: 178000
PRM signal peak area [12]: 177000
PRM signal peak area [13]: 334000
PRM signal peak area [43]: 151000
PRM signal peak area [28]: 42700
PRM signal peak area [44]: 158000
PRM signal peak area [29]: 585000
PRM signal peak area [45]: 235000
PRM signal peak area [46]: 403000
PRM signal peak area [14]: 376000
PRM signal peak area [47]: 197000
PRM signal peak area [15]: 53500
PRM signal peak area [16]: 87100
PRM signal peak area [48]: 409000
PRM signal peak area [17]: 258000
PRM signal peak area [49]: 134000
PRM signal peak area [18]: 164000
PRM signal peak area [30]: 347000
PRM signal peak area [50]: 27400
PRM signal peak area [31]: 260000
PRM signal peak area [51]: 206000
PRM signal peak area [52]: 210000
PRM signal peak area [19]: 215000
PRM signal peak area [20]: 185000
PRM signal peak area [21]: 272000
PRM signal peak area [32]: 8860
PRM signal peak area [22]: 1.31e+06
PRM signal peak area [53]: 26500
Substance: TrM human Src SH2 Superbinder expressed with His6 and GST tags (designed binder)
